# Reference: publication PMC12893000, “Structural basis of quinone sensing by the MarR-type repressor MhqR in Staphylococcus aureus” (mBio, 2025)
# Where a chain is given by its changes, count along the chain named.
# Experiments:
# [1] = molecular target: MarR-type repressor MhqR of Staphylococcus aureus (SaMhqR), wild type, C-terminally His-tagged (Staphylococcus aureus (COL)); assay: SEC-MALS; Superdex 200 Increase 10/300, HEPES buffer (20 mM HEPES, 20 mM MgCl2, 200 mM NaCl, 20 mM KCl)
# [2] = tested on: T1, SaMhqR A63E A63E (Staphylococcus aureus COL), ORF:0a4449b0; assay: EMSA; details: EMSA: 15 ng probe, 0.01-1.0 uM protein, 60 min; for MHQ tests protein diluted to 0.6 uM in 10 mM Tris-HCl pH 7.5 and treated with 0.5-100 mM MHQ for 30 min at …
# T1 sequence: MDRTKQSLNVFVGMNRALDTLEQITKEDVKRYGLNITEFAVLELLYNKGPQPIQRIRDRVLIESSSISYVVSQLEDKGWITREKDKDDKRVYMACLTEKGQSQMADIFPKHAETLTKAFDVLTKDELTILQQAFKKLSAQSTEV
# [3] = tested on: T2, SaMhqR Y69A Y69A (Staphylococcus aureus COL), ORF:0a4449b0; assay: EMSA; details: EMSA: 15 ng probe, 0.01-1.0 uM protein, 60 min; for MHQ tests protein diluted to 0.6 uM in 10 mM Tris-HCl pH 7.5 and treated with 0.5-100 mM MHQ for 30 min at …
# T2 sequence: T1 sequence with E63A, Y69A
# [4] = tested on: T3, SaMhqR Q73A Q73A (Staphylococcus aureus COL), ORF:0a4449b0; assay: EMSA; details: EMSA: 15 ng probe, 0.01-1.0 uM protein, 60 min; for MHQ tests protein diluted to 0.6 uM in 10 mM Tris-HCl pH 7.5 and treated with 0.5-100 mM MHQ for 30 min at …
# T3 sequence: T1 sequence with E63A, Q73A
# [5] = tested on: T4, SaMhqR V91A V91A (Staphylococcus aureus COL), ORF:0a4449b0; assay: EMSA; details: EMSA: 15 ng probe, 0.01-1.0 uM protein, 60 min; for MHQ tests protein diluted to 0.6 uM in 10 mM Tris-HCl pH 7.5 and treated with 0.5-100 mM MHQ for 30 min at …
# T4 sequence: T1 sequence with E63A, V91A
# [6] = tested on: T5, SaMhqR K89A K89A (Staphylococcus aureus COL), ORF:0a4449b0; assay: EMSA; details: EMSA: 15 ng probe, 0.01-1.0 uM protein, 60 min; for MHQ tests protein diluted to 0.6 uM in 10 mM Tris-HCl pH 7.5 and treated with 0.5-100 mM MHQ for 30 min at …
# T5 sequence: T1 sequence with E63A, K89A
# [7] = tested on: T6, SaMhqR D88A D88A (Staphylococcus aureus COL), ORF:0a4449b0; assay: EMSA; details: EMSA: 15 ng probe, 0.01-1.0 uM protein, 60 min; for MHQ tests protein diluted to 0.6 uM in 10 mM Tris-HCl pH 7.5 and treated with 0.5-100 mM MHQ for 30 min at …
# T6 sequence: T1 sequence with E63A, D88A
# [8] = tested on: T7, SaMhqR Y92A Y92A (Staphylococcus aureus COL), ORF:0a4449b0; assay: EMSA; details: EMSA: 15 ng probe, 0.01-1.0 uM protein, 60 min; for MHQ tests protein diluted to 0.6 uM in 10 mM Tris-HCl pH 7.5 and treated with 0.5-100 mM MHQ for 30 min at …
# T7 sequence: T1 sequence with E63A, Y92A
# [9] = tested on: T8, SaMhqR WT (Staphylococcus aureus COL), ORF:0a4449b0; assay: EMSA; details: EMSA: 15 ng probe, 0.01-1.0 uM protein, 60 min; for MHQ tests protein diluted to 0.6 uM in 10 mM Tris-HCl pH 7.5 and treated with 0.5-100 mM MHQ for 30 min at …
# T8 sequence: T1 sequence with E63A
# [10] = tested on: T9, SaMhqR H111A H111A (Staphylococcus aureus COL), ORF:0a4449b0; assay: EMSA; details: EMSA: 15 ng probe, 0.01-1.0 uM protein, 60 min; for MHQ tests protein diluted to 0.6 uM in 10 mM Tris-HCl pH 7.5 and treated with 0.5-100 mM MHQ for 30 min at …
# T9 sequence: T1 sequence with E63A, H111A
# [11] = tested on: T10, SaMhqR F39A F39A (Staphylococcus aureus COL), ORF:0a4449b0; assay: EMSA; details: EMSA: 15 ng probe, 0.01-1.0 uM protein, 60 min; for MHQ tests protein diluted to 0.6 uM in 10 mM Tris-HCl pH 7.5 and treated with 0.5-100 mM MHQ for 30 min at …
# T10 sequence: T1 sequence with F39A, E63A
# [12] = tested on: T11, SaMhqR S64A S64A (Staphylococcus aureus COL), ORF:0a4449b0; assay: EMSA; details: EMSA: 15 ng probe, 0.01-1.0 uM protein, 60 min; for MHQ tests protein diluted to 0.6 uM in 10 mM Tris-HCl pH 7.5 and treated with 0.5-100 mM MHQ for 30 min at …
# T11 sequence: T1 sequence with E63A, S64A
# [13] = tested on: T12, SaMhqR Q54A Q54A (Staphylococcus aureus COL), ORF:0a4449b0; assay: EMSA; details: EMSA: 15 ng probe, 0.01-1.0 uM protein, 60 min; for MHQ tests protein diluted to 0.6 uM in 10 mM Tris-HCl pH 7.5 and treated with 0.5-100 mM MHQ for 30 min at …
# T12 sequence: T1 sequence with Q54A, E63A
# [14] = tested on: T13, SaMhqR E38A E38A (Staphylococcus aureus COL), ORF:0a4449b0; assay: EMSA; details: EMSA: 15 ng probe, 0.01-1.0 uM protein, 60 min; for MHQ tests protein diluted to 0.6 uM in 10 mM Tris-HCl pH 7.5 and treated with 0.5-100 mM MHQ for 30 min at …
# T13 sequence: T1 sequence with E38A, E63A
# [15] = tested on: T14, SaMhqR F11A F11A (Staphylococcus aureus COL), ORF:0a4449b0; assay: EMSA; details: EMSA: 15 ng probe, 0.01-1.0 uM protein, 60 min; for MHQ tests protein diluted to 0.6 uM in 10 mM Tris-HCl pH 7.5 and treated with 0.5-100 mM MHQ for 30 min at …
# T14 sequence: T1 sequence with F11A, E63A
# [16] = tested on: T15, SaMhqR E43A E43A (Staphylococcus aureus COL), ORF:0a4449b0; assay: EMSA; details: EMSA: 15 ng probe, 0.01-1.0 uM protein, 60 min; for MHQ tests protein diluted to 0.6 uM in 10 mM Tris-HCl pH 7.5 and treated with 0.5-100 mM MHQ for 30 min at …
# T15 sequence: T1 sequence with E43A, E63A
# [17] = tested on: T16, SaMhqR R90A R90A (Staphylococcus aureus COL), ORF:0a4449b0; assay: EMSA; details: EMSA: 15 ng probe, 0.01-1.0 uM protein, 60 min; for MHQ tests protein diluted to 0.6 uM in 10 mM Tris-HCl pH 7.5 and treated with 0.5-100 mM MHQ for 30 min at …
# T16 sequence: T1 sequence with E63A, R90A
# [18] = tested on: T17, SaMhqR S65A S65A (Staphylococcus aureus COL), ORF:0a4449b0; assay: EMSA; details: EMSA: 15 ng probe, 0.01-1.0 uM protein, 60 min; for MHQ tests protein diluted to 0.6 uM in 10 mM Tris-HCl pH 7.5 and treated with 0.5-100 mM MHQ for 30 min at …
# T17 sequence: T1 sequence with E63A, S65A
# [19] = tested on: T18, SaMhqR S66A S66A (Staphylococcus aureus COL), ORF:0a4449b0; assay: EMSA; details: EMSA: 15 ng probe, 0.01-1.0 uM protein, 60 min; for MHQ tests protein diluted to 0.6 uM in 10 mM Tris-HCl pH 7.5 and treated with 0.5-100 mM MHQ for 30 min at …
# T18 sequence: T1 sequence with E63A, S66A
# [20] = tested on: T19, SaMhqR E43A,H111A E43A;H111A (Staphylococcus aureus COL), ORF:0a4449b0; assay: EMSA; details: EMSA: 15 ng probe, 0.01-1.0 uM protein, 60 min; for MHQ tests protein diluted to 0.6 uM in 10 mM Tris-HCl pH 7.5 and treated with 0.5-100 mM MHQ for 30 min at …
# T19 sequence: T1 sequence with E43A, E63A, H111A
# [21] = tested on: T20, SaMhqR V70A V70A (Staphylococcus aureus COL), ORF:0a4449b0; assay: EMSA; details: EMSA: 15 ng probe, 0.01-1.0 uM protein, 60 min; for MHQ tests protein diluted to 0.6 uM in 10 mM Tris-HCl pH 7.5 and treated with 0.5-100 mM MHQ for 30 min at …
# T20 sequence: T1 sequence with E63A, V70A
# [22] = tested on: T21, SaMhqR S68A S68A (Staphylococcus aureus COL), ORF:0a4449b0; assay: EMSA; details: EMSA: 15 ng probe, 0.01-1.0 uM protein, 60 min; for MHQ tests protein diluted to 0.6 uM in 10 mM Tris-HCl pH 7.5 and treated with 0.5-100 mM MHQ for 30 min at …
# T21 sequence: T1 sequence with E63A, S68A
substance,measurement,setting,value
"MarR-type repressor MhqR of Staphylococcus aureus (SaMhqR), wild type, C-terminally His-tagged (natural protein)",stoichiometry N,[1],2
ACATATCAACTCCTATCATGATTGATTATAGTATTTCCCTATTCTATTTTAACTTAAACGAAGTCAAAGGTGCATGACAGTCATGTGACGACATTGCCACATCTATGTAGTCGTTTTTATTAAGCACAGTTTGAAATGAAGATGAAAACACGTATCTTGACATTAAATCTATTCAGTTATATAATTTATCTCGAAATCGAAATAAAATAAAAAAGTTGGTGATCATATGGATCGAACG (double strand) [mhqRED promoter probe],binding,[2],binds more weakly
same,binding,[3],binds more weakly
same,binding,[4],binds more weakly
same,binding,[5],binds more weakly
same,binding,[6],binds more weakly
same,binding,[7],binds more weakly
same,binding,[8],binds more weakly
same,binding,[9],binds
same,binding,[10],binds more weakly
same,binding,[11],binds more weakly
same,binding,[12],binds
same,binding,[13],binds more weakly
same,binding,[14],binds more weakly
same,binding,[15],binds more weakly
same,binding,[16],binds
same,binding,[17],binds more weakly
same,binding,[18],binds more weakly
same,binding,[19],binds more weakly
same,binding,[20],no binding
same,binding,[21],binds more weakly
same,binding,[22],binds more weakly
